Reference: patent publication US20230348572A1
Read-outs that look alike come from different tables or passages of the source.

Key:
[1] = target: RBD-6H (amino acid 340-538; NITN.GPKK), biotinylated (SARS-CoV-2) (UniProt P0DTC2)
[2] = target: RBD (amino acids 340-538 NITN.GPKK) expressed on the surface of MDCK-SIAT1 cells (SARS-CoV-2) (UniProt P0DTC2)
[3] = target: RBD-6H (amino acid 340-538; NITN.GPKK), biotinylated (SARS-CoV-2) (UniProt P0DTC2); remark: listed apart in the source

Substance | IC50 [1] | IC50 [2] | IC50 [3]
CR3022-Fc (antibody) | 803 nM | – | –
H11-H4-Fc (Fc fusion) | – | 34 nM | 61 nM
VHH72-Fc (Fc fusion) | – | 33 nM | 262 nM
